# Values quoted from earlier work in publication PMC10674744.
# Legend:
# [1] = target: STRAD NES NES (Homo sapiens) (UniProt Q7RTN6)
# [2] = target: PKI NES NES (Homo sapiens) (UniProt P61925)
# [3] = target: SNUPN NES NES (Homo sapiens) (UniProt O95149)
# [4] = target: Rev NES NES (Human immunodeficiency virus 1) (UniProt P04325)
substance,measurement,setting,value
CRM1 (from UniProt O14980),Kd,[1],10.3 µM
same,Kd,[2],0.034 µM
same,Kd,[3],12.5 µM
same,Kd,[4],1.18 µM
